According to patent US20240116985A1 (published 2024):
Starred links: 1 amine or outer side, 2 acyl side, 3 side chain; linkers in the order of their positions; H or OH if unused. Positions of bridges follow the written chain, without caps; N, C: chain ends. Non-standard residues stand in square brackets, D forms with d. Primed or numbered codes have the meaning given here. B5(15) = 2-amino-2-(pent-4-en-1-yl)hept-6-enoic acid (2,2-bis(4-pentenyl)glycine), stitching residue bearing two staples, C=CCCCC(CCCC=C)(N[*:1])C(=O)[*:2]; PyrS2″ = (S)-3-amino-1-((pent-4-en-1-yloxy)carbonyl)pyrrolidine-3-carboxylic acid (stapling residue), C=CCCCOC(=O)N1CC[C@@](N[*:1])(C(=O)[*:2])C1; B5(4) = 2,2-bis(4-pentenyl)glycine = 2-amino-2-(pent-4-en-1-yl)hept-6-enoic acid (stitching residue), C=CCCCC(CCCC=C)(N[*:1])C(=O)[*:2]; B5(5) = 2,2-bis(4-pentenyl)glycine, 2-amino-2-(pent-4-en-1-yl)hept-6-enoic acid (stitching residue), C=CCCCC(CCCC=C)(N[*:1])C(=O)[*:2]; PyrS2 = (S)-3-amino-1-((pent-4-en-1-yloxy)carbonyl)pyrrolidine-3-carboxylic acid, C=CCCCOC(=O)N1CC[C@@](N[*:1])(C(=O)[*:2])C1; B5(27) = 2-amino-2-(pent-4-en-1-yl)hept-6-enoic acid (two alkene side-chain arms), C=CCCCC(CCCC=C)(N[*:1])C(=O)[*:2]; MorphAsn = (S)-2-amino-4-morpholino-4-oxobutanoic acid, O=C(C[C@H](N[*:1])C(=O)[*:2])N1CCOCC1; Phe(3-COOH) = N[C@@H](Cc1cccc(C(=O)O)c1)C(=O)O; Bta = N[C@@H](Cc1csc2ccccc12)C(=O)O; αAllylPro = C=CC[C@@]1(C(=O)O)CCCN1; tBuAla = CC(C)(C)C[C@H](N)C(=O)O; 3Thi = N[C@@H](Cc1ccsc1)C(=O)O; Cha = N[C@@H](CC1CCCCC1)C(=O)O; S8 = C=CCCCCCC[C@](C)(N)C(=O)O; hLeu = CC(C)CC[C@H](N)C(=O)O; hSer = N[C@@H](CCO)C(=O)O; Nle = CCCC[C@H](N)C(=O)O

T1: B-cat-Halo (beta-catenin HaloTag NanoBRET construct expressed in HEK293 cells) (UniProt P35222 1-781, HaloTag NanoBRET 618 Ligand bound to the HaloTag)
T1 sequence (looked up): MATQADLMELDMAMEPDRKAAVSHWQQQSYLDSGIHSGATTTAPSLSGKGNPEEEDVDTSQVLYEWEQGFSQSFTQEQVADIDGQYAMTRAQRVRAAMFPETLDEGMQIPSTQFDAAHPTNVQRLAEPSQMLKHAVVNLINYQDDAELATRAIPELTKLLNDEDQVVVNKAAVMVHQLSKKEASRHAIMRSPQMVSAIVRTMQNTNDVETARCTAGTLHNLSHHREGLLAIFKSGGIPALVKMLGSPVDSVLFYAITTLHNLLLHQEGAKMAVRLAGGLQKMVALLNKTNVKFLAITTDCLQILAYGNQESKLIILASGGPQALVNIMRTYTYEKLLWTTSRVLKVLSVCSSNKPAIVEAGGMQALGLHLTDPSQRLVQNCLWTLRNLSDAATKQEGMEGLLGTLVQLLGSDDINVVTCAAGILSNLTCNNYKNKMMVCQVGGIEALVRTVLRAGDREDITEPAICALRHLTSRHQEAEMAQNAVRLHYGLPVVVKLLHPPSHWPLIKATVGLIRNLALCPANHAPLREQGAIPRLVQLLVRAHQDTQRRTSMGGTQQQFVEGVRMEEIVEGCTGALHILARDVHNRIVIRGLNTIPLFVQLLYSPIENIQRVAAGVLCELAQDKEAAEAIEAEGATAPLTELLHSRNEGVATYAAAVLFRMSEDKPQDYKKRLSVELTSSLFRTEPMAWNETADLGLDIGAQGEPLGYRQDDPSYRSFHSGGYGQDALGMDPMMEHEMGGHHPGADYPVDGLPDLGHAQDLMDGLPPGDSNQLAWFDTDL

T2: Bcat-Halo (UniProt P35222 1-781)
T2 sequence (looked up): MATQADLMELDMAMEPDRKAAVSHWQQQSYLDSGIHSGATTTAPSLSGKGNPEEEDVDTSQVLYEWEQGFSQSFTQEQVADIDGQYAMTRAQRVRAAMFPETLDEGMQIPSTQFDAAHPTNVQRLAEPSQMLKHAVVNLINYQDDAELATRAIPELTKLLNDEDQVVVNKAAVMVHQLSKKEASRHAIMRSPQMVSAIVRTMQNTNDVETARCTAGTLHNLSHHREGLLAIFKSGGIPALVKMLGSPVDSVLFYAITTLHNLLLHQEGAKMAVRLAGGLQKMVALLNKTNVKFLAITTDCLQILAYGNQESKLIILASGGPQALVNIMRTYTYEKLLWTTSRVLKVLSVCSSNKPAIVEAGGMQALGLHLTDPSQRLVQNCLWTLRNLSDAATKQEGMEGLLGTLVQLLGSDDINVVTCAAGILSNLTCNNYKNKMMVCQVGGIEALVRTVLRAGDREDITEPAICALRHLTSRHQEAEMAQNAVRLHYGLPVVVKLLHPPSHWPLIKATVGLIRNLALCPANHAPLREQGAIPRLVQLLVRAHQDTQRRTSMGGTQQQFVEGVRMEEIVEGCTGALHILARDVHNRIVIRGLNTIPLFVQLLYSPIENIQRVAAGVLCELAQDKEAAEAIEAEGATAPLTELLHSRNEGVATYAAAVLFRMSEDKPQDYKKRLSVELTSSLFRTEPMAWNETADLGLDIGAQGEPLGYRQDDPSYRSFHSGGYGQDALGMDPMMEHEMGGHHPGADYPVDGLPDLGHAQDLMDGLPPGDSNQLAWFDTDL

T3: B-cat-Halo (beta-catenin HaloTag NanoBRET construct expressed in HEK293 cells) (UniProt P35222 1-781)
T3 sequence (looked up): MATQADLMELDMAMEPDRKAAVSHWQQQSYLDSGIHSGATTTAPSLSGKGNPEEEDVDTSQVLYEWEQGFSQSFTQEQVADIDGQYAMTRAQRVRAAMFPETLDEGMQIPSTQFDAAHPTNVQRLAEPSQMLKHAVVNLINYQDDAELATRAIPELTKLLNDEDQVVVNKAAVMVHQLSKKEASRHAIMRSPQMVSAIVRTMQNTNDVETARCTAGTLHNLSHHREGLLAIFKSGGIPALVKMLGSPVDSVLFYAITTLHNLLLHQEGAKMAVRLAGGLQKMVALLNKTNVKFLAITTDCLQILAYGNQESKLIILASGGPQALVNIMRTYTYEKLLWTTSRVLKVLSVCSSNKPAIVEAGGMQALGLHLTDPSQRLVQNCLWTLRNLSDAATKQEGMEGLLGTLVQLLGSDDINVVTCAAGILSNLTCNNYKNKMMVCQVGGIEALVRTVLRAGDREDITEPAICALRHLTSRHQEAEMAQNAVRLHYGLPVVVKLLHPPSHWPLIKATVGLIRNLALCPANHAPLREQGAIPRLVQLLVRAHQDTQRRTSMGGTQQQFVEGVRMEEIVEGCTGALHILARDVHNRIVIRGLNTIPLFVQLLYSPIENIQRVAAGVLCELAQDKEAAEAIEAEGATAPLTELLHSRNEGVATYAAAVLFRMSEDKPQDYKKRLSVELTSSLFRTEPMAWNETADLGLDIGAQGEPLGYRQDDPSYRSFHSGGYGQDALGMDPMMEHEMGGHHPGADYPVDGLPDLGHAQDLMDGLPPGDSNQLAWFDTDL


Experiments:
Assay in all cases: cell-based or functional assay
[1] = target: T1, B-cat-Halo (beta-catenin HaloTag …)
Bcat-Halo = target: T2, Bcat-Halo
[2] = target: T3, B-cat-Halo (beta-catenin HaloTag …)

| NanoBRET Abs IC50 [1] [µM] | Binder | further results |
| --- | --- | --- |
| 8 | Ac-[αAllylPro]D[Nle][B5(5)]DEAAFL[S8]F[Bta]Q-NH2 (staple 1-4, 4-11) [I-1523: Ac-PL3-Asp-nLeu-B5-Asp-Glu-Ala-Ala-Phe-Leu-S8-Phe-BztA-Gln-NH2] | – |
| – | Ac-[αAllylPro]D[tBuAla][B5(4)]DWAA[Phe(3-COOH)]L[PyrS2″][3Thi][Bta]Q-NH2 (staple 1-4, 4-11) [I-2129] | NanoBRET Abs IC50 (Bcat-Halo): 44 µM |
| 10.8 | Ac-[αAllylPro]D[Nle][B5(5)]DEAAF[hSer][S8]F[Bta]Q-NH2 (staple 1-4, 4-11) [I-1525: Ac-PL3-Asp-nLeu-B5-Asp-Glu-Ala-Ala-Phe-Hse-S8-Phe-BztA-Gln-NH2] | – |
| 24.2 | Ac-[αAllylPro]DN[B5(5)]DDAAFL[PyrS2″][3Thi][Bta][hSer]-NH2 (staple 1-4, 4-11) [I-1518: Ac-PL3-Asp-Asn-B5-Asp-Asp-Ala-Ala-Phe-Leu-PyrS2-3Thi-BztA-Hse-NH2] | – |
| > 20 | Ac-[αAllylPro]DN[B5(5)]DDAAFL[PyrS2″][3Thi][Bta]Q-NH2 (staple 1-4, 4-11) [I-1517: Ac-PL3-Asp-Asn-B5-Asp-Asp-Ala-Ala-Phe-Leu-PyrS2-3Thi-BztA-Gln-NH2] | – |
| 31.8 | Ac-[αAllylPro]DF[B5(27)]DDAAFL[PyrS2][3Thi][Bta][hSer]-NH2 (staple 1-4, 4-11) [I-1510: Ac-PL3-Asp-Phe-B5-Asp-Asp-Ala-Ala-Phe-Leu-PyrS2-3Thi-BztA-Hse-NH2] | – |
| – | Ac-[αAllylPro]D[hLeu][B5(15)]DEAAF[hSer][S8]F[Bta]Q-NH2 (staple 1-4, 4-11; not fully specified; printed as Ac-PL3-Asp-Hleu-B5-Asp-Glu-Ala-Ala-Phe-Hse-S8-Phe-BztA-Gln-NH2) [I-1537] | NanoBRET Abs IC50 [2]: 13.9 µM |
| > 20 | Ac-[αAllylPro]DT[B5(5)]DDAAFL[PyrS2″][3Thi][Bta]Q-NH2 (staple 1-4, 4-11) [I-1515: Ac-PL3-Asp-Thr-B5-Asp-Asp-Ala-Ala-Phe-Leu-PyrS2-3Thi-BztA-Gln-NH2] | – |
| > 20 | Ac-[αAllylPro]DT[B5(5)]DDAAFL[PyrS2″][3Thi][Bta][hSer]-NH2 (staple 1-4, 4-11) [I-1516: Ac-PL3-Asp-Thr-B5-Asp-Asp-Ala-Ala-Phe-Leu-PyrS2-3Thi-BztA-Hse-NH2] | – |
| – | Ac-[αAllylPro]D[tBuAla][B5(4)]DYAA[Phe(3-COOH)]L[PyrS2″][3Thi][Bta]Q-NH2 (staple 1-4, 4-11) [I-2126] | NanoBRET Abs IC50 (Bcat-Halo): 29.5 µM |
| – | Ac-[αAllylPro]D[hLeu][B5(15)]DEAAFL[S8]F[Bta]Q-NH2 (staple 1-4, 4-11) [I-1536] | NanoBRET Abs IC50 [2]: 18.4 µM |
| – | Ac-[αAllylPro]D[tBuAla][B5(4)]DWAA[Phe(3-COOH)][hSer][PyrS2″][3Thi][Bta]Q-NH2 (staple 1-4, 4-11) [I-2128] | NanoBRET Abs IC50 (Bcat-Halo): 27 µM |
| > 20 | Ac-[αAllylPro]D[tBuAla][B5(27)]DDA[MorphAsn]FL[PyrS2][3Thi][Bta]Q-NH2 (staple 1-4, 4-11) [I-1507: Ac-PL3-Asp-Npg-B5-Asp-Asp-Ala-MorphAsn-Phe-Leu-PyrS2-3Thi-BztA-Gln-NH2] | – |
| 12.8 | Ac-[αAllylPro]D[Cha][B5(5)]DDAAFL[PyrS2″][3Thi][Bta]Q-NH2 (staple 1-4, 4-11) [I-1519: Ac-PL3-Asp-Cha-B5-Asp-Asp-Ala-Ala-Phe-Leu-PyrS2-3Thi-BztA-Gln-NH2] | – |
